This is an account of results in publication doi:10.1101/2024.07.10.602906.

In assay [1] the target is GV CW1 murine norovirus VP1 P-domain (wild type) (murine norovirus (GV, MNV-1 CW1)) (UniProt Q80J95). Kind of assay: methyl TROSY NMR.
Assay [2] shares this target. Description: NMR titration.

By Kd is commonly meant the concentration at which binding is half-saturated. Low values mean higher affinity, high ones lower affinity. Broadly, the koff is the rate constant with which the complex falls apart. Low readings indicate slow dissociation, high ones fast dissociation. On to “GV CW1 murine norovirus VP1 P-domain (wild type) (from UniProt Q80J95 228-530) (domain or fragment)”, for which, in assay [1], the percent dimers at pH* 5.3 was over 70% and the percent monomers at pH 7.4 was 70%. Moreover, in assay [2], the equilibrium dissociation constant (Kd) was 45 µM and the koff was 4.7 s⁻¹.
